# Source: patent publication US6107069A, “Recombinant kynurenine-3-hydroxylase enzyme and process for its preparation” (priority 1996, dated 2000)
# B1: human recombinant kyn-3-OHase (Homo sapiens) (protein)
# chain: MDSSVIQRKKVAVIGGGLVGSLQACFLAKRNFQIDVYEAREDTRVATFTRGRSINLALSHRGRQALKAVGLEDQIVSQGIPMRARMIHSLSGKKSAIPYGTKSQYILSVSRENLNKDLLTAAEKYPNVKMHFNHRLLKCNPEEGMITVLGSDKVPKDVTCDLIVGCDGAYSTVRSHLMKKPRFDYSQQYIPHGYMELTIPPKNGDYAMEPNYLHIWPRNTFMMIALPNMNKSFTCTLFMPFEEFEKLLTSNDVVDFFQKYFPDAIPLIGEKLLVQDFFLLPAQPMISVKCSSFHFKSHCVLLGDAAHAIVPFFGQGMNAGFEDCLVFDELMDKFSNDLSLCLPVFSRLRIPDDHAISDLSMYNYIEMRAHVNSSWFIFQKNMERFLHAIMPSTFIPLYTMVTFSRIRYHEAVQRWHWQKKVINKGLFFLGSLIAISSTYLLIHYMSPRSFLCLRRPWNWIAHFRNTTCFPAKAVDSLEQISNLISR
# Substrate: Nc1ccccc1C(=O)C[C@H](N)C(=O)O
# Assay: cells, lysate or membranes named
# Settings: other: L-kynurenine 1 to 4,000 μM, OD600 = 0.6, IPTG 1 mM, 2 h at 37° C.
protein,measurement,value
B1,Km,57 ± 2 µM
same,Vmax,10.5±0.11 nmol/hour.mg of protein
